We go through three proteins from US20060105414.

The target in data set [1] is T1, GST-IκBα (1-54), regulatory domain of IκBα, P25963.
T1 chain: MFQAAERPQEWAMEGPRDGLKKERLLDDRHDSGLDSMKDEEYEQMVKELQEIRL

Data set [2] has as its target T2, GST-NF-κB2 (754-900) (p100C), C terminal regulatory domain of NF-κB2, Q00653.
T2 chain: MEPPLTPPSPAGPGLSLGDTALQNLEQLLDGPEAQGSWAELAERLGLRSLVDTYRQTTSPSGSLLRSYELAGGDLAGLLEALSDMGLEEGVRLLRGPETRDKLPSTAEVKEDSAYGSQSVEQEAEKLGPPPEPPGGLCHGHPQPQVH

B1: IκB kinase α (IKKα), recombinant, chromatographically pure, produced in Sf9 cells using baculoviruses (protein)
chain: MERPPGLRPGAGGPWEMRERLGTGGFGNVCLYQHRELDLKIAIKSCRLELSTKNRERWCHEIQIMKKLNHANVVKACDVPEELNILIHDVPLLAMEYCSGGDLRKLLNKPENCCGLKESQILSLLSDIGSGIRYLHENKIIHRDLKPENIVLQDVGGKIIHKIIDLGYAKDVDQGSLCTSFVGTLQYLAPELFENKPYTATVDYWSFGTMVFECIAGYRPFLHHLQPFTWHEKIKKKDPKCIFACEEMSGEVRFSSHLPQPNSLCSLIVEPMENWLQLMLNWDPQQRGGPVDLTLKQPRCFVLMDHILNLKIVHILNMTSAKIISFLLPPDESLHSLQSRIERETGINTGSQELLSETGISLDPRKPASQCVLDGVRGCDSYMVYLFDKSKTVYEGPFASRSLSDCVNYIVQDSKIQLPIIQLRKVWAEAVHYVSGLKEDYSRLFQGQRAAMLSLLRYNANLTKMKNTLISASQQLKAKLEFFHKSIQLDLERYSEQMTYGISSEKMLKAWKEMEEKAIHYAEVGVIGYLEDQIMSLHAEIMELQKSPYGRRQGDLMESLEQRAIDLYKQLKHRPSDHSYSDSTEMVKIIVHTVQSQDRVLKELFGHLSKLLGCKQKIIDLLPKVEVALSNIKEADNTVMFMQGKRQKEIWHLLKIACTQSSARSLVGSSLEGAVTPQTSAWLPPTSAEHDHSLSCVVTPQDGETSAQMIEENLNCLGHLSTIIHEANEEQGNSMMNLDWSWLTE
On to B1, for which the “phosphorylation of GST-IκBα (1-54) in an in vitro kinase assay” value (shortened to “phosphorylation of GST-IκBα”) in data set [1] was “the regulatory domain of Iκ Bα was phosphorylated more efficiently by IKKβ than by IKKα”. In data set [2], the “phosphorylation of GST-NF-κB2 (754-900) (p100C) in an in vitro kinase assay” value is recorded as “the C terminal regulatory domain of NF-κB2 was phosphorylated most efficiently by IKKα” and the “phosphorylation of the NF-κB2 C-terminal regulatory domain in vitro” value is listed as “IKK is a more effective NF-B2 C-terminal kinase than NIK”.

B2: IKKβ, recombinant, chromatographically pure, produced in Sf9 cells using baculoviruses (protein)
chain: MSWSPSLTTQTCGAWEMKERLGTGGFGNVIRWHNQETGEQIAIKQCRQELSPRNRERWCLEIQIMRRLTHPNVVAARDVPEGMQNLAPNDLPLLAMEYCQGGDLRKYLNQFENCCGLREGAILTLLSDIASALRYLHENRIIHRDLKPENIVLQQGEQRLIHKIIDLGYAKELDQGSLCTSFVGTLQYLAPELLEQQKYTVTVDYWSFGTLAFECITGFRPFLPNWQPVQWHSKVRQKSEVDIVVSEDLNGTVKFSSSLPYPNNLNSVLAERLEKWLQLMLMWHPRQRGTDPTYGPNGCFKALDDILNLKLVHILNMVTGTIHTYPVTEDESLQSLKARIQQDTGIPEEDQELLQEAGLALIPDKPATQCISDGKLNEGHTLDMDLVFLFDNSKITYETQISPRPQPESVSCILQEPKRNLAFFQLRKVWGQVWHSIQTLKEDCNRLQQGQRAAMMNLLRNNSCLSKMKNSMASMSQQLKAKLDFFKTSIQIDLEKYSEQTEFGITSDKLLLAWREMEQAVELCGRENEVKLLVERMMALQTDIVDLQRSPMGRKQGGTLDDLEEQARELYRRLREKPRDQRTEGDSQEMVRLLLQAIQSFEKKVRVIYTQLSKTVVCKQKALELLPKVEEVVSLMNEDEKTVVRLQEKRQKELWNLLKIACSKVRGPVSGSPDSMNASRLSQPGQLMSQPSTASNSLPEPAKKSEELVAEAHNLCTLLENAIQDTVREQDQSFTALDWSWLQTEEEEHSCLEQAS
B2: the “phosphorylation of GST-IκBα” value in data set [1] was “the regulatory domain of Iκ Bα was phosphorylated more efficiently by IKKβ than by IKKα”.

B3: NF-κB inducing kinase (NIK), recombinant, immunopurified, produced in Sf9 cells using baculoviruses (protein)
chain: MAVMEMACPGAPGSAVGQQKELPKAKEKTPPLGKKQSSVYKLEAVEKSPVFCGKWEILNDVITKGTAKEGSEAGPAAISIIAQAECENSQEFSPTFSERIFIAGSKQYSQSESLDQIPNNVAHATEGKMARVCWKGKRRSKARKKRKKKSSKSLAHAGVALAKPLPRTPEQESCTIPVQEDESPLGAPYVRNTPQFTKPLKEPGLGQLCFKQLGEGLRPALPRSELHKLISPLQCLNHVWKLHHPQDGGPLPLPTHPFPYSRLPHPFPFHPLQPWKPHPLESFLGKLACVDSQKPLPDPHLSKLACVDSPKPLPGPHLEPSCLSRGAHEKFSVEEYLVHALQGSVSSGQAHSLTSLAKTWAARGSRSREPSPKTEDNEGVLLTEKLKPVDYEYREEVHWATHQLRLGRGSFGEVHRMEDKQTGFQCAVKKVRLEVFRAEELMACAGLTSPRIVPLYGAVREGPWVNIFMELLEGGSLGQLVKEQGCLPEDRALYYLGQALEGLEYLHSRRILHGDVKADNVLLSSDGSHAALCDFGHAVCLQPDGLGKSLLTGDYIPGTETHMAPEVVLGRSCDAKVDVWSSCCMMLHMLNGCHPWTQFFRGPLCLKIASEPPPVREIPPSCAPLTAQAIQEGLRKEPIHRVSAAELGGKVNRALQQVGGLKSPWRGEYKEPRHPPPNQANYHQTLHAQPRELSPRAPGPRPAEETTGRAPKLQPPLPPEPPEPNKSPPLTLSKEESGMWEPLPLSSLEPAPARNPSSPERKATVPEQELQQLEIELFLNSLSQPFSLEEQEQILSCLSIDSLSLSDDSEKNPSKASQSSRDTLSSGVHSWSSQAEARSSSWNMVLARGRPTDTPSYFNGVKVQIQSLNGEHLHIREFHRVKVGDIATGISSQIPAAAFSLVTKDGQPVRYDMEVPDSGIDLQCTLAPDGSFAWSWRVKHGQLENRP
For B3, the “phosphorylation of GST-IκBα” value in data set [1] is listed as “not at all by NIK”. Further, the “phosphorylation of the NF-κB2 C-terminal regulatory domain in vitro” value in data set [2] was “both NIK and IKKα phosphorylate the C-terminal regulatory domain of NF-κB2”.
